Assay [1] addresses T1, PCSK9-V5 (Homo sapiens, UniProt Q8NBP7).
T1 construct: Full-length human V5-tagged PCSK9 and LDLR were subcloned into pIRES2-EGFP; expressed in transfected cells; host or cells: HEK293
Put plainly: Co-immunoprecipitation of GRP94 constructs with PCSK9-V5 in transfected HEK293 cells. Format: binding. The method, then:
FIG. 2: Mapping of the PCSK9-GRP94 interacting domain. (a-b) HEK293 cells were transfected without (−) or with (+) PCSK9-V5 or SEQ ID NO. 66, 64 or 65. A PCSK9 V5 epitope-tag fusion protein (PCSK9-V5) was immune-precipitated from cell lysates using mAb-V5 antibody (IP: V5) and immune-blotted as indicated. Total GRP94 (SEQ. ID. NO. 3) and PCSK9 (SEQ. ID. NO. 1) protein levels were analyzed by immune-blotting in cell lysates (input) and conditioned media. (c) Left panel; HEK293 cells were transfected without (−) or with (+) PCSK9-V5, SEQ. ID. NO. 66 or 46. PCSK9-V5 was immune-precipitated for cell lysates (IP: V5) and immune-blotted (IB) as indicated. Total GRP94 and PCSK9 protein levels were also analyzed by immune-blotting and herein used as a control (input). Right panel; GRP94 homodimer (gray and yellow) crystal structure was determined from PDB file #2O1V using MacPymol software. […] 6 in which critical residues for PCSK9 binding determined in (b) are indicated in blue for SEQ. ID. NO. 64 and red for SEQ. ID. NO. 65. Data are representative of at least three independent experiments.
For identification of novel PCSK9 interactors, HepG2 or Huh-7 cells (55 cm2) were washed three times in phosphate-buffered saline (PBS) and incubated with 1 mM dithiobis[succinimidylpropionate] (DSP; Cat. #22585, Thermo Scientific), a thiol-cleavable cross-linking reagent, for 30 min at room temperature and subsequently switch for 15 min into a stop solution (15 mM Tris, pH 7.5). Cells were then lysed in complete radio-immune precipitation assay (RIPA) buffer (50 mM Tris/HCl, pH 8.0, 1% (v/v) Nonidet P40, 0.5% sodium deoxycholate, 150 mM NaCl and 0.1% (v/v) sodium dodecyl sulfate (SDS)) supplemented with a complete protease inhibitor mixture (Cat. #11 697 498 001, Roche Applied Science), passed 25 times through a 22-gauge needle and centrifuged at 11,000 g for 15 min at 4° C. Supernatants were incubated and rotated overnight with pre-immune serum, rabbit anti-hPCSK9 (amino acids 31-454) (1:250; Dr. Nabil Seidah, Clinical Research Institute of Montreal) or mouse anti-V5-tag (1:500; Cat. #R96025, Life Technologies) together with 50 μl protein A/G PLUS-agarose (Cat. #sc-2003, Santa Cruz). Following overnight incubation, beads were washed six times in RIPA buffer and resuspended in 75 μl Laemmli sample buffer. Co-immunoprecipitated (Co-IP) proteins were separated by 8% SDS-polyacrylamide gel electrophoresis and visualized using the Pierce silver stain kit (Cat. #24600, Thermo Scientific) according the manufacturer's instructions. All other Co-IP experiments were performed as described without the cross-linking step and in SDS-deprived RIPA buffer. HA-tagged proteins and GRP94 were immunoprecipitated with mouse anti-HA-tag (1:500; Cat. #H3663, Sigma-Aldrich) or rat anti-Grp94 (9G10, 1:1000; Cat. #ADI-SPA-850, Enzo Life Sciences).
We next decided to map GRP94 domain(s) important for PCSK9 protein-protein interaction. The overall domain structure of GRP94 includes a signal polypeptide (amino acids; aa1-21) followed by a N-terminal enzymatic ATP-binding domain (aa22-651), client-binding domain (CBD; aa652-678), C-terminal dimerization domain (aa679-799) and a KDEL polypeptide sequence (aa800-803) allowing retention of GRP94 in the endoplasmic reticulum. (Dollins et al., 2007; Maki et al., 1990; Wu et al., 2012) Thus, we first generated cDNA constructs encoding secretable HA-tagged forms of human GRP94 lacking its C-terminal KDEL polypeptide (SEQ ID. NO. 66; FIG. 2). HEK293 cells were transfected without or with SEQ ID. NO. 66 in absence or presence of PCSK9-V5 (FIG. 2a). […] NO. 66 is well expressed (Input; IB: HA) and secreted into media and that SEQ ID. NO. […] It was reported that a 27 aa C-terminal hydrophobic loop structure within GRP94 client-binding domain (CBD, amino acids aa652-678; ^652[…], SEQ ID. NO. 4) was important for folding and interaction with Toll-like receptors and integrins. (Wu et al., 2012) Deletion or alanine-scan mutations in SEQ ID. […]

Assay [2] has as its system LDLR degradation induced by overexpression of PCSK9. The assay can be described thus: LDLR degradation after co-expression with PCSK9-V5 (intracellular pathway), immunoblot. The format is cell-based, human. The method, then: FIG. 7: SEQ ID NO. 6 prevents PCSK9-induced LDLR degradation. (a) Left; Coomassie staining of purified recombinant SEQ ID NO. 6 and PCSK9 separated by SDS-PAGE is shown. Right; HepG2 cells were incubated in DMEM without or with 0, 25, 100 or 250 nM SEQ ID NO. 6 alone or in presence of recombinant PCSK9. (b) HepG2 cells were transfected without (−) or with PCSK9-V5 in absence (−) or presence SEQ ID NO. 66 or SEQ ID NO. 46. Total LDLR, PCSK9, SEQ ID NO. 66, SEQ ID NO. 46 and β-actin protein levels were analyzed by immunoblotting in cell lysates and conditioned media as indicated. Data are representative of at least three independent experiments.
We next tested whether SEQ ID. NO. 6 could alter the capacity of PCSK9 to induce LDLR degradation. HepG2 cells were incubated overnight with an increasing amount of recombinant SEQ ID. NO. 6 in absence or presence of exogenous PCSK9 (FIG. 7a). […] NO. […] Although that SEQ ID. NO. […] NO. […] (Poirier et al., 2009) As PCSK9 was also shown to induce LDLR degradation via an intracellular pathway, (Poirier et al., 2009) we evaluated to ability of SEQ ID. NO. 66 or SEQ ID. NO. 46 to neutralize PCSK9 in HepG2 cells following co-expression (FIG. 7b). Similar to the extracellular pathway (FIGS. 5b and 7a), both SEQ ID. NO. 66 and SEQ ID. NO. […] NO. 66 and specifically SEQ ID. NO. […]
(In general: A western blot detects proteins with antibodies after separation by electrophoresis.)

The values below come from US11529390B2, “PCSK9 inhibitory polypolypeptides and methods of use” (INSTITUT DE CARDIOLOGIE DE MONTREAL, priority 2015, dated 2022).

Where two headings read alike, the source gives them in different places.

T1 sequence (Q8NBP7 153-692): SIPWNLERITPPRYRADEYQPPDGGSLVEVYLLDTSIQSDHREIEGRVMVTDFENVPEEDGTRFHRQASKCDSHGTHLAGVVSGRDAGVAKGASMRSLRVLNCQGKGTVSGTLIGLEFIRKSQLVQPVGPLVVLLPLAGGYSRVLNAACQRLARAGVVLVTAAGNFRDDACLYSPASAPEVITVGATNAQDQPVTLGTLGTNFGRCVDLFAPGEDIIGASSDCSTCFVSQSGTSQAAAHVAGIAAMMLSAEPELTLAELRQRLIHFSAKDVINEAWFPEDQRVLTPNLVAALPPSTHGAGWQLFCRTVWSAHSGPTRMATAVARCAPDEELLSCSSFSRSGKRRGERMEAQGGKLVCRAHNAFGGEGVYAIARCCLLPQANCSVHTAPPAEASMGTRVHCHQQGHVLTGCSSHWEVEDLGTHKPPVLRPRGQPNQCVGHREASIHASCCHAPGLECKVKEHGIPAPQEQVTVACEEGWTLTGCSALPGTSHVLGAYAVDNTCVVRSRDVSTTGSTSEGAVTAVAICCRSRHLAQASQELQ

B1: SEQ ID. NO. 64: alanine-scanning mutant of GRP94-ΔKDEL, CBD region YAASAAAAAIMKAQAYQTGKDISTNYY (SEQ ID. NO. 78) (protein, listed as Homo Sapiens)
chain: MRALWVLGLCCVLLTFGSVRADDEVDVDGTVEEDLGKSREGSRTDDEVVQREEEAIQLDGLNASQIRELREKSEKFAFQAEVNRMMKLIINSLYKNKEIFLRELISNASDALDKIRLISLTDENALSGNEELTVKIKCDKEKNLLHVTDTGVGMTREELVKNLGTIAKSGTSEFLNKMTEAQEDGQSTSELIGQFGVGFYSAFLVADKVIVTSKHNNDTQHIWESDSNEFSVIADPRGNTLGRGTTITLVLKEEASDYLELDTIKNLVKKYSQFINFPIYVWSSKTETVEEPMEEEEAAKEEKEESDDEAAVEEEEEEKKPKTKKVEKTVWDWELMNDIKPIWQRPSKEVEEDEYKAFYKSFSKESDDPMAYIHFTAEGEVTFKSILFVPTSAPRGLFDEYGSKKSDYIKLYVRRVFITDDFHDMMPKYLNFVKGVVDSDDLPLNVSRETLQQHKLLKVIRKKLVRKTLDMIKKIADDKYNDTFWKEFGTNIKLGVIEDHSNRTRLAKLLRFQSSHHPTDITSLDQYVERMKEKQDKIYFMAGSSRKEAESSPFVERLLKKGYEVIYLTEPVDEYCIQALPEFDGKRFQNVAKEGVKFDESEKTKESREAVEKEFEPLLNWMKDKALKDKIEKAVVSQRLTESPCALVASQYAASAAAAAIMKAQAYQTGKDISTNYYASQKKTFEINPRHPLIRDMLRRIKEDEDDKTVLDLAVVLFETATLRSGYLLPDTKAYGDRIERMLRLSLNIDPDAKVEEEPEEEPEETAEDTTEDTEQDEDEEMDVGTDEEEETAKESTAEYPYDVPDYA
Take B1: the “Interaction (binding) with PCSK9 by co-immunoprecipitation” value (shortened to “Interaction (binding) with PCSK9”) in assay [1] is “abrogate binding to PCSK9”; in assay [1] (listed as AA1), “abolished PCSK9 binding”.

B2: SEQ ID. NO. 46: secretable HA-tagged GRP94 signal polypeptide, client-binding domain and C-terminal domain lacking KDEL (CBD-CT) (protein)
chain: MRALWVLGLCCVLLTFGSVRAYGWSGNMERIMKAQAYQTGKDISTNYYASQKKTFEINPRHPLIRDMLRRIKEDEDDKTVLDLAVVLFETATLRSGYLLPDTKAYGDRIERMLRLSLNIDPDAKVEEEPEEEPEETAEDTTEDTEQDEDEEMDVGTDEEEETAKESTAEYPYDVPDYA
Consider B2, for which the “Block of LDLR degradation induced by overexpression of PCSK9” value in assay [2] is given as “significantly block”.

B3: SEQ ID. NO. 65: alanine-scanning mutant of GRP94-ΔKDEL, CBD region YGWSGNMERIMKAQAYATGKAISTNAA (SEQ ID. NO. 79) (protein, listed as Homo Sapiens)
chain: MRALWVLGLCCVLLTFGSVRADDEVDVDGTVEEDLGKSREGSRTDDEVVQREEEAIQLDGLNASQIRELREKSEKFAFQAEVNRMMKLIINSLYKNKEIFLRELISNASDALDKIRLISLTDENALSGNEELTVKIKCDKEKNLLHVTDTGVGMTREELVKNLGTIAKSGTSEFLNKMTEAQEDGQSTSELIGQFGVGFYSAFLVADKVIVTSKHNNDTQHIWESDSNEFSVIADPRGNTLGRGTTITLVLKEEASDYLELDTIKNLVKKYSQFINFPIYVWSSKTETVEEPMEEEEAAKEEKEESDDEAAVEEEEEEKKPKTKKVEKTVWDWELMNDIKPIWQRPSKEVEEDEYKAFYKSFSKESDDPMAYIHFTAEGEVTFKSILFVPTSAPRGLFDEYGSKKSDYIKLYVRRVFITDDFHDMMPKYLNFVKGVVDSDDLPLNVSRETLQQHKLLKVIRKKLVRKTLDMIKKIADDKYNDTFWKEFGTNIKLGVIEDHSNRTRLAKLLRFQSSHHPTDITSLDQYVERMKEKQDKIYFMAGSSRKEAESSPFVERLLKKGYEVIYLTEPVDEYCIQALPEFDGKRFQNVAKEGVKFDESEKTKESREAVEKEFEPLLNWMKDKALKDKIEKAVVSQRLTESPCALVASQYGWSGNMERIMKAQAYATGKAISTNAAASQKKTFEINPRHPLIRDMLRRIKEDEDDKTVLDLAVVLFETATLRSGYLLPDTKAYGDRIERMLRLSLNIDPDAKVEEEPEEEPEETAEDTTEDTEQDEDEEMDVGTDEEEETAKESTAEYPYDVPDYA
Take B3: the entries for the “Interaction (binding) with PCSK9” value in assay [1] and in assay [1] (listed as AA2) were “abrogate binding to PCSK9” and “abolished PCSK9 binding”, respectively.

B4: SEQ ID. NO. 7: polypeptide of the invention; in b217 apparently the truncated CBD-CT form of GRP94 (protein)
chain: MRALWVLGLCCVLLTFGSVRAYGWSGNMERIMKAQAYQTGKDISTNYYASQKKTFEINPRHPLIRDMLRRIKEDEDDKTVLDLAVVLFETATLRSGYLLPDTKAYGDRIERMLRLSLNIDPDAKVEEEPEEEPEETAEDTTEDTEQDEDEEMDVGTDEEEETAKESTAE
For B4, in assay [1], the “Interaction (binding) with PCSK9” value is “significantly enhanced”.
